We go through five molecules from patent publication US20100183584A1, “CONFORMATION AND ACTIVITY OF GBETA5 COMPLEXES” (University Of Miami, priority 2007, published 2010).

Changes are numbered by the printed parent chain.

The target in assay [1] is full-length RGS7-Gβ5 complex (recombinant, co-expressed in cells) (bovine) (UniProt O46470). In words: GST pull-down from COS-7 lysate, western blot.
Assay [2] concerns the target Gβ5-RGS7^249-469 complex (bovine) (UniProt O46470). As to the kind of experiment: GST pull-down from COS-7 lysate, western blot.
The target in assay [3] is native RGS7-Gβ5 complex from mouse brain extract (mouse) (UniProt P62881). As to the kind of experiment: GST pull-down from mouse brain extract, western blot.
The target in assay [4] is muscarinic acetylcholine M3 receptor (M3R), full length, expressed in CHO cells (human) (UniProt P20309). In words: cell-based or functional assay.
Assay [5] has as its target T1, Gβ5-RGS7 dimer (CFP-Gβ5/YFP-RGS7) (UniProt O14775+O46470).
T1 construct: YFP fusion of full-length RGS7 (YFP-RGS7) and CFP-Gβ5; expressed in transfected cells; host or cells: COS-7 (transient; lysate measured)
T1 sequence (O14775 1-353 isoform O14775-2): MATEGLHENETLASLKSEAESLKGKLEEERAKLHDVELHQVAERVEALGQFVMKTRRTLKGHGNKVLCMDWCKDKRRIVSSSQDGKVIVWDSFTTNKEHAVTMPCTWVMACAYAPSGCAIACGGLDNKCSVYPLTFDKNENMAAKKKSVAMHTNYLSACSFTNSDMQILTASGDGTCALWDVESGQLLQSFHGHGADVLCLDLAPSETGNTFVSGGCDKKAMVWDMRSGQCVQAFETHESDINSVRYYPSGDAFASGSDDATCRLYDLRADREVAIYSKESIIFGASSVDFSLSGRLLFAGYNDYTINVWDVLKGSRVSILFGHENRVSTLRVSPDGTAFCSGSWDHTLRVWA
T1 sequence (O46470 1-469): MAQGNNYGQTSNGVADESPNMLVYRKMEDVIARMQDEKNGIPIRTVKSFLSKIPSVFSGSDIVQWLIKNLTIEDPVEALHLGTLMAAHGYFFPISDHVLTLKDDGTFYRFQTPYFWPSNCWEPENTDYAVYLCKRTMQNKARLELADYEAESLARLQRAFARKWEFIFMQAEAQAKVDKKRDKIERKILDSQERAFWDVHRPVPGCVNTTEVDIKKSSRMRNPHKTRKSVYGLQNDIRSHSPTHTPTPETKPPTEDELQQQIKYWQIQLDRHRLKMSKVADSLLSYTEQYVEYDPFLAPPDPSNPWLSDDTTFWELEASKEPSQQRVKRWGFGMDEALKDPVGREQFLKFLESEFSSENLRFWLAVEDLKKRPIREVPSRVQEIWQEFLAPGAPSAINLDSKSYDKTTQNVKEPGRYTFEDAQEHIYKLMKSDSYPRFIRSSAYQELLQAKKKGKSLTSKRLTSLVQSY
As to the kind of experiment: FRET between CFP-Gβ5 and YFP-RGS7 in COS-7 cell lysates. It counts as binding, bovine. The note with it: GST-R7DEP added to COS-7 lysate; GST alone had no effect. The text has this:
To measure FRET, COS-7 cells were transiently transfected with plasmids encoding YFP-RGS7 and CFP-Gβ5. Control cells were co-transfected with YFP-RGS7 together with untagged Gβ5, and CFP-Gβ5 together with untagged RGS7. The lysates of these cells were subjected to spectroscopic analysis, as described in Example 1. Shown are the resulting FRET spectra obtained after subtraction of the YFP background fluorescence during the CFP excitation and CFP “bleed-through” into the YFP emission channel. A. Right panel: GST R7-DEP (black symbols) or buffer (open symbols) was added to the lysate prior to recording of the spectra. […]
To permit the association of exogenously added DEP domain with Gβ5, the intra-molecular interaction between the intrinsic DEP and Gβ5 must be dynamic and have relatively low affinity. To investigate this hypothesis, a protein-protein binding assay based on fluorescence resonance energy transfer (FRET) was devised. […]
FRET between CFP— and YFP-tagged proteins was determined on a photon counting spectrofluorometer (PTI, Inc.) (28). Briefly, the cell lysates were placed in a 4 ml quartz cuvette, and the spectra were recorded at room temperature with continuous mixing of the lysate with a magnetic stirrer. CFP was excited at 433 nm (2-4 nm slit width, depending on the intensity of fluorescence signal) and the emission spectra were obtained between 465 and 555 nm. […]

Assay [6] deals with T2, native RGS7-Gβ5 complex from mouse brain extract (mouse, UniProt P62881 1-353; O54829 1-469, limits assumed).
T2 construct: Native complex in a cholate extract of brain membranes; may also carry R7BP; also called native Gβ5-RGS7; Gβ5-RGS complexes (brain)
T2 sequence (looked up) 1: T1 sequence (O14775 1-353 isoform O14775-2) with E4D, I242V
T2 sequence (looked up) 2: T1 sequence (O46470 1-469) with Q259H, A298V, K371R, K452R, S456T
In words: GST pull-down from mouse brain extract, western blot with anti-RGS7 and anti-Gβ5.

In another assay the target is T3, GST (UniProt P08515 1-218 = GST).
T3 construct: Negative control in pull-down and FRET assays; also called GST alone; immobilized GST
In words: GST pull-down from CHO cell lysate.

T3 sequence (P08515 whole entry): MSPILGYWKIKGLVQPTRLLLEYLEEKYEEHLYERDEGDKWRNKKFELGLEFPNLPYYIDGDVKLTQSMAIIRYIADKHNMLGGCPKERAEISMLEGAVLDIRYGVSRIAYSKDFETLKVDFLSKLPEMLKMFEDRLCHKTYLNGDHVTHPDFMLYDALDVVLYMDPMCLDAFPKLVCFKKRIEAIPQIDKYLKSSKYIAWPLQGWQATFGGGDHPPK
Chain of muscarinic acetylcholine M3 receptor (M3R), full length, expressed in CHO cells (human) (P20309 whole entry): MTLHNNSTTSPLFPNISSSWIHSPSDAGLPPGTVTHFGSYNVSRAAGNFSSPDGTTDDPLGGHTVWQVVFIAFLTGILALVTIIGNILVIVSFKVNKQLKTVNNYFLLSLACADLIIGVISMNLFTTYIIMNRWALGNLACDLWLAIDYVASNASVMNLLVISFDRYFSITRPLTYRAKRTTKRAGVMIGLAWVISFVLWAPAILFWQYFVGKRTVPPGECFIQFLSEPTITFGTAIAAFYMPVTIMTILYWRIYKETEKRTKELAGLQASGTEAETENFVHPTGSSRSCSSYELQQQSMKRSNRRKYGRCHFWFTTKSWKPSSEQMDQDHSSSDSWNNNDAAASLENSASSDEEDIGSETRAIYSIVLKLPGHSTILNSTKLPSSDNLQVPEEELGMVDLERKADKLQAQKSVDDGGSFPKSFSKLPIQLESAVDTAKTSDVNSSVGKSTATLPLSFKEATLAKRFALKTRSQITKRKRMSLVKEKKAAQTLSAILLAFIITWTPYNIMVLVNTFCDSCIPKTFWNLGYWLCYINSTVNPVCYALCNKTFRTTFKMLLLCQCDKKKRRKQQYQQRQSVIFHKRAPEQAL

In the case of “GST-R7DEP ED/SG mutant (E73S/D74G) (from UniProt O46470 34-124)”, the fold reduction in the amount of Gβ5 pulled down relative to the wild-type DEP domain in assay [1], in assay [2] and in assay [3] was greater than 10 fold in each case.

As to “full-length RGS7 ED/SG mutant (RGS7^ED/SG, E73S/D74G) co-expressed with Gβ5 (from UniProt O46470 1-469)”, the reduction of the amplitude of carbachol-induced Ca^2+ transients in CHO-R7BP cells in assay [4] is greater than 50%.

B1: GST-R7DEP: GST fusion construct containing the amino acids 34-124 of bovine RGS7 (protein)
chain: MQDEKNGIPIRTVKSFLSKIPSVFSGSDIVQWLIKNLTIEDPVEALHLGTLMAAHGYFFPISDHVLTLKDDGTFYRFQTPYFWPSNCWEPE
modifications: left off: a dimerising Fc or GST
notes: GST fusion construct containing the amino acids 34-124 of bovine RGS7
For B1, the “FRET reduction, of the total FRET signal” value in assay [5] is 15-20%.

B2: GST-R9DEP (GST fusion of the putative DEP domain of RGS9, amino acids 20-117 of bovine RGS9) (other, UniProt O46469 20-117, looked up)
chain: IEALVKDMQDPDTGVRVQNQKVKVVSIPHAMTGSDVLQWISQRLWISGLEAQNLGNFIVKYGYIYPLQDPRNLTLKPDSSLYRFQTPYFWPTQQWPAE
notes: range 20-117; not shown: glutathione S-transferase (GST) tag of the pGEX-KG vector
Regarding B2, the binding result in assay [6] is on record as “no binding”.

B3: YFP-DEP (amino acids 1-124 of full-length bovine RGS7 fused to the C-terminus of YFP) (other, UniProt O46470 1-124, looked up)
chain: MAQGNNYGQTSNGVADESPNMLVYRKMEDVIARMQDEKNGIPIRTVKSFLSKIPSVFSGSDIVQWLIKNLTIEDPVEALHLGTLMAAHGYFFPISDHVLTLKDDGTFYRFQTPYFWPSNCWEPE
notes: range 1-124; also called DEP domain; DEP domain of RGS7; not shown: yellow fluorescent protein (YFP) of the pEYFPC1 vector
As to B3, the binding result with GST is on record as “no binding”.
